{
  "source": "patent US20130123481A1",
  "about": "“MODIFIED NUCLEOSIDES, NUCLEOTIDES, AND NUCLEIC ACIDS, AND USES THEREOF” (MODERNA THERAPEUTICS, priority 2011, published 2013)",
  "molecules": {"B1": {"name": "G-CSF 5-methyl cytosine/pseudouridine: mRNA encoding human G-CSF (SEQ ID NO: 1), Cap 1, 100% substitution with 5-methyl cytidine and pseudouridine (nucleic acid, listed as Homo Sapiens)", "chain": "GGGAAAUAAGAGAGAAAAGAAGAGUAAGAAGAAAUAUAAGAGCCACCAUGGCCGGUCCCGCGACCCAAAGCCCCAUGAAACUUAUGGCCCUGCAGUUGCUGCUUUGGCACUCGGCCCUCUGGACAGUCCAAGAAGCGACUCCUCUCGGACCUGCCUCAUCGUUGCCGCAGUCAUUCCUUUUGAAGUGUCUGGAGCAGGUGCGAAAGAUUCAGGGCGAUGGAGCCGCACUCCAAGAGAAGCUCUGCGCGACAUACAAACUUUGCCAUCCCGAGGAGCUCGUACUGCUCGGGCACAGCUUGGGGAUUCCCUGGGCUCCUCUCUCGUCCUGUCCGUCGCAGGCUUUGCAGUUGGCAGGGUGCCUUUCCCAGCUCCACUCCGGUUUGUUCUUGUAUCAGGGACUGCUGCAAGCCCUUGAGGGAAUCUCGCCAGAAUUGGGCCCGACGCUGGACACGUUGCAGCUCGACGUGGCGGAUUUCGCAACAACCAUCUGGCAGCAGAUGGAGGAACUGGGGAUGGCACCCGCGCUGCAGCCCACGCAGGGGGCAAUGCCGGCCUUUGCGUCCGCGUUUCAGCGCAGGGCGGGUGGAGUCCUCGUAGCGAGCCACCUUCAAUCAUUUUUGGAAGUCUCGUACCGGGUGCUGAGACAUCUUGCGCAGCCGUGAAGCGCUGCCUUCUGCGGGGCUUGCCUUCUGGCCAUGCCCUUCUUCUCUCCCUUGCACCUGUACCUCUUGGUCUUUGAAUAAAGCCUGAGUAGGAAG", "modifications": "Cap1; 5-methylcytidine and pseudouridine"}, "B2": {"name": "GCSF mRNA unmod: G-CSF mRNA (SEQ ID NO: 1) unmodified, 5′ cap of Cap1 (nucleic acid, listed as Homo Sapiens)", "chain": "B1 chain", "modifications": "Cap1"}, "B3": {"name": "unmodified G-CSF: Unmodified G-CSF mRNA (SEQ ID NO: 1, Cap1), storage stability (nucleic acid, listed as Homo Sapiens)", "chain": "B1 chain", "modifications": "Cap1"}},
  "key": {"human PBMC": {"test_system": "human PBMC", "experiment": "Cytokine Study: PBMC - G-CSF production (G-CSF ELISA)", "type": "cell-based", "conditions": "mRNA with Lipofectamine 2000", "description": "(§1) The plates were then incubated at 37° C.\n(§2) Each condition was done in duplicate.\nIn the G-CSF ELISA, background signal from the Lipofectamine 2000 (LF2000) untreated condition was subtracted at each time point."}, "[1]": {"test_system": "peripheral blood mononuclear cells (PBMC)", "experiment": "In Vitro PBMC Studies: Percent modification - G-CSF expression", "type": "cell-based, human", "conditions": "480 ng mRNA", "description": "480 ng of G-CSF mRNA modified with 5-methylcytosine (5mC) and pseudouridine (pseudoU) or unmodified G-CSF mRNA was transfected with 0.4 uL of Lipofectamine 2000 into peripheral blood mononuclear cells (PBMC) from three normal blood donors (D1, D2, and D3). […] The supernatant was harvested and run by ELISA 22 hours after transfection to determine the protein expression. The expression of IFN-alpha and TNF-alpha may be a secondary effect from the transfection of the G-CSF mRNA."}, "[2]": {"test_system": "human PBMC, interferon-alpha (IFN-alpha)", "experiment": "Cytokine Study: PBMC - IFN-alpha production (ELISA)", "description": "as §1, §2"}, "[3]": {"test_system": "human PBMC, tumor necrosis factor alpha (TNF-alpha)", "method": "50 mL of human blood from two donors was received from Research Blood Components (lots KP30928 and KP30931) in sodium heparin tubes. For each donor, the blood was pooled and diluted to 70 mL with DPBS (SAFC Bioscience 59331C, lot 071M8408) and split evenly between two 50 mL conical tubes. 10 mL of Ficoll Paque (GE Healthcare 17-5442-03, lot 10074400) was gently dispensed below the blood layer. The tubes were centrifuged at 2000 rpm for 30 minutes with low acceleration and braking. The tubes were removed and the buffy coat PBMC layers were gently transferred to a fresh 50 mL conical and washed with DPBS. The tubes were centrifuged at 1450 rpm for 10 minutes.\nThe supernatant was aspirated and the PBMC pellets were resuspended and washed in 50 mL of DPBS. The tubes were centrifuged at 1250 rpm for 10 minutes. This wash step was repeated, and the PBMC pellets were resuspended in 19 mL of Optimem I (Gibco 11058, lot 1072088) and counted. The cell suspensions were adjusted to a concentration of 3.0×10̂6 cells/mL live cells.\nThese cells were then plated on five 96 well tissue culture treated round bottom plates (Costar 3799) per donor at 50 uL per well. Within 30 minutes, transfection mixtures were added to each well at a volume of 50 uL per well. After 4 hours post transfection, the media was supplemented with 10 uL of Fetal Bovine Serum (Gibco 10082, lot 1012368)\nThe plate containing the material to be transfected was incubated for 20 minutes. The transfection mixtures were then transferred to each of the human PBMC plates at 50 uL per well. The plates were then incubated at 37° C. At 2, 4, 8, 20, and 44 hours each plate was removed from the incubator, and the supernatants were frozen.\nThe ability of unmodified and modified mRNA to produce the encoded protein was assessed (G-CSF production) over time as was the ability of the mRNA to trigger innate immune recognition as measured by interferon-alpha production."}, "female BALB/C mice": {"test_system": "female BALB/C mice", "experiment": "In Vivo Detection of Innate Immune Response Study - human G-CSF protein in serum", "conditions": "human G-CSF in mouse serum; I.M.; 8 hours after dosing", "description": "Blood is collected at 8 hours after dosing."}, "[4]": {"test_system": "female BALB/C mice, interferon-alpha (IFN-alpha)", "experiment": "In Vivo Detection of Innate Immune Response Study - mouse IFN-alpha in serum", "method": "Blood is collected at 8 hours after dosing. Using ELISA the protein levels of G-CSF, TNF-alpha and IFN-alpha is determined by ELISA."}, "[5]": {"experiment": "Stability of Modified RNA - storage, gel electrophoresis", "type": "physicochemical", "description": "Stability experiments were conducted to obtain a better understanding of storage conditions to retain the integrity of modified RNA. […] After the mRNA had been stored for 0 hours, 2 hours, 6 hours, 24 hours, 48 hours, 5 days and 14 days, the mRNA was analyzed by gel electrophoresis using a Bio-Rad EXPERION™ system. The modified, unmodified and lipoplexed G-CSF mRNA was also stored in RNASTABLE® (Biomatrica, Inc. San Diego, Calif.) at 40° C. or water at −80° C. or 40° C. for 35 days before being analyzed by gel electrophoresis."}, "[6]": {"test_system": "Human primary foreskin fibroblasts (BJ fibroblasts)", "experiment": "Cell Viability in BJ Fibroblasts (CELL TITER GLO, repeated transfection)", "type": "cell-based", "conditions": "normalized to untreated = 100%", "description": "Control samples of Lipofectamine 2000 (LF2000) and unmodified G-CSF mRNA were also transfected. The modified mRNA or control samples were transfected daily for 4 days. The viability of the cells after transfection was evaluated 6 hours and 24 hours after the first transfection (Ti, 6 hours or T1, 24 hours), and 24 hours after the second (T2, 24 hours) and fourth transfection (T4, 24 hours).\nTo determine cell viability, the culture medium was completely removed and the cells were washed once with 600 ul of sterile PBS without Ca2+/Mg2+ (Gibco/Life Technologies, Manassas, Va.) in order to rinse-off loosely attached cells. PBS was removed and discarded. The cleaned fibroblasts in each well were treated with 220 ul of a diluted CELL TITER GLO® (Promega, catalog #G7570) stock solution (the CELL TITER GLO® stock solution was further diluted 1:1 with an equal amount of sterile PBS). A sterile pipet tip was used to scratch the cells off the plate and accelerate the lysis process.\nFor two time intervals, T1, 24 hours and T2, 24 hours, an alternative protocol was applied. Cells were washed with PBS, as described above, and subsequently trypsinized with Trypsin/EDTA solution (Gibco/Life Technologies, Manassas, Va.). Cells were detached and collected in 500 ul of medium containing trypsin inhibitor. Cells were harvested by centrifugation at 1200 rcf for 5 minutes. The cell pellet was resuspended in 500 ul PBS. This cell suspension was kept on ice, and 100 ul of this was combined with 100 ul of undiluted Cell Titer Glo solution.\nAll of the CELL TITER GLO® lysates were then incubated at room temperature for 20 minutes. 20 ul of the lysates were transferred to a white opaque polystyrene 96-well plate (Corning, Manassas, Va.) and combined with 100 ul diluted CELL TITER GLO® solution. The plate reader used was from BioTek Synergy H1 (BioTek, Winooski, Vt.) and the absolute values were normalized to signal of the untreated BJ Fibroblasts to 100% cell vitality."}},
  "data": [
    {"molecule": "Luciferase: control mRNA encoding luciferase (SEQ ID NO: 3), Cap 1, fully modified with 5-methylcytosine and pseudouridine [reference compound]", "values": [
      {"measurement": "G-CSF: 3 Donor Average", "setting": "human PBMC", "result": 18, "unit": "pg/mL"},
      {"measurement": "G-CSF Expression", "setting": "[1]; PBMC donor D1, 0.4 uL Lipofectamine 2000, ELISA 22 hours after transfection", "result": 90.2, "unit": "pg/mL"},
      {"measurement": "G-CSF Expression", "setting": "[1]; PBMC donor D2, 22 hours after transfection", "result": 0.0, "unit": "pg/mL"},
      {"measurement": "G-CSF Expression", "setting": "[1]; PBMC donor D3, 22 hours after transfection", "result": 22.1, "unit": "pg/mL"}
    ]},
    {"molecule": "B1", "values": [
      {"measurement": "G-CSF: 3 Donor Average", "setting": "human PBMC", "result": 4742, "unit": "pg/mL"},
      {"measurement": "IFN-alpha production (in words)", "setting": "[2]", "result": "low but detectable levels"},
      {"measurement": "IFN-alpha: 3 Donor Average", "setting": "[2]", "result": 141, "unit": "pg/mL"},
      {"measurement": "G-CSF/IFN-alpha (ratio), PC Ratio", "setting": "[2]; human PBMC, 3 donor averages", "result": 34},
      {"measurement": "TNF-alpha production (in words)", "setting": "[3]", "result": "low but detectable levels"},
      {"measurement": "TNF-alpha: 3 Donor Average", "setting": "[3]", "result": 31, "unit": "pg/mL"},
      {"measurement": "G-CSF/TNF-alpha (ratio), PC Ratio", "setting": "[3]; human PBMC, 3 donor averages", "result": 153}
    ]},
    {"molecule": "B2", "values": [
      {"measurement": "G-CSF protein", "setting": "female BALB/C mice", "result": 605.6, "unit": "pg/mL"},
      {"measurement": "PC Ratio", "setting": "[4]; G-CSF protein / IFN-alpha in mouse serum", "result": 9},
      {"measurement": "IFN-alpha expression", "setting": "[4]; mouse IFN-alpha in serum, I.M., 8 hours after dosing", "result": 67.01, "unit": "pg/mL"}
    ]},
    {"molecule": "B3", "values": [
      {"measurement": "stable out to", "setting": "[5]; stored at 25° C.", "result": 48, "unit": "h"},
      {"measurement": "stable out to", "setting": "[5]; stored at 37° C.", "result": 6, "unit": "h"},
      {"measurement": "stable out to", "setting": "[5]; stored at 50° C.", "result": 2, "unit": "h"},
      {"measurement": "Percent Viability T1, 6 hours", "setting": "[6]; T1, 6 hours", "result": 101, "unit": "%"},
      {"measurement": "Percent Viability T1, 24 hours", "setting": "[6]; T1, 24 hours", "result": 72, "unit": "%"},
      {"measurement": "Percent Viability T2, 24 hours", "setting": "[6]; T2, 24 hours", "result": 74, "unit": "%"},
      {"measurement": "Percent Viability T4, 24 hours", "setting": "[6]; T4, 24 hours", "result": 42, "unit": "%"}
    ]}
  ]
}
